From PMC3563936

Molecular target: T1, Dpo4 (Y-family DNA polymerase) (Sulfolobus solfataricus, UniProt Q97W02 1-352)
T1 sequence: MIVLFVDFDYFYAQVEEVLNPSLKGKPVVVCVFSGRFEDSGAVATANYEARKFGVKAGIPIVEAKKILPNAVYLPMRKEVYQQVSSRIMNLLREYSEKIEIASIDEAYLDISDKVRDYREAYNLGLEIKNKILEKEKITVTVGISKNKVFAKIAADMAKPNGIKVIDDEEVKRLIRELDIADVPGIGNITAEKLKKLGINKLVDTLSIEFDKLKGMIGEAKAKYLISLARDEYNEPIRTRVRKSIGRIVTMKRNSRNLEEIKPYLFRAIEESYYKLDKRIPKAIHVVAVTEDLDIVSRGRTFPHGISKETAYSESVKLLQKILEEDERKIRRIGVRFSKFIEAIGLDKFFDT
Test: X-ray crystallography

B1: 14/18-mer primer/template DNA (dsDNA)
DNA 1: GGGGGAAGGATTCC
DNA 2: TCATGGAATCCTTCCCCC
**Q.** Does B1 bind?
**A.** Result: binds
